B1: CF-117: GSE, SEQ ID NO:4, antisense; NADH dehydrogenase ND6 subunit gene (nucleic acid, listed as Homo sapiens)
antisense: GTGAAAGAGTATGATGGGGTGGTGGTTGTCGTAAACTTTAATAGTGTAGGAAGCTGAATAATTTATAAAGGAGAGGGGACAGGGTTGATTCGGGAGGATC
B2: CF-101: GSE, SEQ ID NO:3, sense; NADH dehydrogenase ND2 subunit gene (nucleic acid, listed as Homo sapiens)
sense: CATCAGCCCTTCTTAACATCTACTTCTACCTACGCCTAATCTACTCCACCTCAATCACACTACTCCCCATATCTAACAACGTAAAAATAAAATGACAGTTTGAGCATACAAAACCCACCCCATTCCTCCCCACACTCATCGCC
B3: CF-681: GSE, SEQ ID NO:85, antisense; FK506-binding protein A1 gene (nucleic acid, listed as Homo sapiens)
antisense: TGGGGGAAGGGTGCAGCAACGATTTCTCACCAAATCACTACACAGGACAGCAAAGGGGTGAGAAGGGGCTGAGGGAGGAAAAGCCAGGAAACTGAGATCAGCAGAGGGAGCCAAGCATCAAAAAACAGGAGATGCTGAAGCTGCGATGACCAGCATCATTTTCTTAAGAGAACATTCAAGGATTTGTCATGATGGCTGGGCTTTCACTTGGTGTTAAGTCTACAAACAGCACCTTCAATTGGAACTGTCAATTAAAGTTCTTAAGATTTAGGAAGTGGTGGAGCTTGGAAAGTTATGAGATTACAAAATTTCTGAAAGTC
B4: CF-025: GSE, SEQ ID NO:5, antisense; NADH dehydrogenase ND2 subunit gene (nucleic acid, listed as Homo sapiens)
antisense: GAAGAAGCAGGCCGGATGTCAGAGGGGTGCCTTGGGTAACCTCTGGGACTCAGAAGTGAAAGGGGGCTATTCCTAGTTTTATTGCTATAGCCATTATGATTATTAATGATGAGTAT
B5: CF-319: GSE, SEQ ID NO:2, sense; NADH dehydrogenase ND6 subunit gene (nucleic acid, listed as Homo sapiens)
sense: GATCCTCCCGAATCAACCCTGACCCCTCTCCTTCATAAATTATTCAGCTTCCTACACTATTAAAGTTTACCACAACCACCACGCCATCATACTCCTTCAC
B6: CF-128: GSE, SEQ ID NO:6, sense; NADH dehydrogenase ND4 subunit gene (nucleic acid, listed as Homo sapiens)
sense: TCCTAGTCCTCACAATCATGGCAAGCCAGCGCCACTTATCCAGTGAACCACTATCACGAAAAAAACTCTACCTCTCTATACTAATCTCCCTACAAATCTCATTAATTATAATATTCACAACCACAGA

Assays:
[1] = system: latent HIV provirus in OM10.1 cells; experiment: Induction of latent HIV provirus by TNF-α in OM10.1 cells (CD4 retention, p24); assay type: cell-based, HIV-1
Procedure: In order to determine p24 expression in HIV-infected cells, the cells were first washed twice with Assay Buffer. About 10^6 cells were suspended in 100 μL Assay Buffer, mixed with 2 mL of Ortho PermeaFix Solution (available from Ortho Diagnostics), and incubated for 40 min. at room temperature. After centrifugation at 1200 rpm for 4 min. at 4EC, the cells were resuspended in 2 mL Wash Buffer (500 mL PBS, 25 mL fetal bovine serum, 1.5% bovine serum albumin and 0.0055% EDTA) for 10 min. at room temperature. After centrifugation, the cells were resuspended in 50 ΦL Wash Buffer and mixed with 1:500 dilution of an IgG2a antibody for 20 min. at 4EC, followed by incubation with 5-10 ΦL of anti-p24 antibody (KC57-FITC, available from Coulter) for 30 min. at 4EC. The cells were then washed twice with Wash Buffer and analyzed by flow cytometry.
(§1) One strategy selected for GSEs which suppressed productive infection of cells by HIV. The second strategy selected for GSEs which suppressed induction of the latent provirus in OM10.1 cells. When OM10.1 cells were treated with TNF-α and stained with an antibody specific for the cell surface molecule CD4, a rapid loss of CD4 expression was observed (FIG. 1). In contrast, the vast majority of the uninduced OM10.1 cells retained CD4 expression. It is believed that activation of the latent virus in OM10.1 cells by TNF-α leads to the production of viral protein gp120, which binds to cytoplasmic CD4, thereby preventing its translocation to the cell surface. A diminution of CD4^+ OM10.1 cells also correlates with an increased production of viral protein p24 in the cells following TNF-α induction.
OM10.1 cells were cultured in RPMI 1640 glucose-free media prior to and during incubation with NADH dehydrogenase inhibitors and TNF-á induction. The inhibitors were added to the cells followed by TNF-á induction 1-2 hours later. The expression of CD4 by the cells was assessed by anti-CD4 antibody staining and flow cytometry after 24 hour incubation at 37° C.

[2] = system: HIV; experiment: Selection of GSEs from RFE libraries using OM10.1 and CEM-ss cells (strategy not stated per GSE); assay type: cell-based, HIV-1; conditions: GSEs matching NADH dehydrogenase subunit genes
Procedure: The libraries prepared from HL-60 cells according to the method of Section A of this Example, were transfected into the packaging cell line, PA317 (ATCC CRL #9078), and converted into retrovirus for infection of OM10.1 cells. Libraries in pLNCX vector were co-cultured and selected with G418. Libraries in pLNGFRM vector were transduced by spinoculation (centrifugation of target cells at 1200×g for 90 min. in the presence of filtered retroviral supernatant; Dunn et al., 1999, Gene Therapy 6: 133-137) and selected by FACS sorting of the NGFR^+ population. After selection, the OM10.1 cells harboring the entire RFE library were induced with 10 U/mL of TNF-α at 37EC, and 24 hours later, were stained with an antibody and sorted for CD4 expression. Genomic DNA from the CD4^+ cells was purified and used for PCR amplification of inserts with the vector-derived primers. The amplified mixture was digested with EcoRI and BamHI and cloned back into the retroviral vector. The selection was repeated for additional rounds.
Additionally, a normalized RFE library made from HeLa cells was transferred into CEM-ss cells and the neo resistant population was infected with TCID50 of 3000/10^6 cells of HIV-1IIIB. This RFE library was represented by 50×10^6 independent recombinant clones. Four and seven days after infection, a purified anti-CD4 monoclonal antibody, L77 (available from Becton Dickinson), was added at 5 Φg/mL to prevent syncytia formation. Syncytia formation is thought to be prevented by blocking the interaction between gp120 expressed on the surface of an infected cell and CD4 on the surface of an uninfected cell. […] At 10-12 days after infection, CD4^+, p24^− cell population representing uninfected cells were sorted. Genomic DNA from the CD4^+, p24^− cells was purified and used for PCR amplification of inserts with the vector-derived primers. The amplified mixture was digested with EcoRI and BamHI and cloned back into the retroviral vector. The selection was repeated for additional rounds.
as §1
GSEs derived from cDNAs representing expressed human cellular genes were identified and isolated from a RFE library made from HL-60 cells using HIV provirus activation in OM10.1 cells as a read-out. Following transfection of the entire library into a packaging cell line, retrovirus carrying the library was used to infect OM10.1 cells by co-cultivation or spinoculation, and NGFR selection was performed to ensure the retention of the viral vector. When the infected cells were treated with TNF-α a small number of residual CD4^+ cells were detected by an anti-CD4 antibody and sorted by FACS. The GSEs contained in these cells were recovered by PCR amplification and their nucleotide sequences determined.
A total of twenty GSEs were isolated by the two aforementioned selection strategies using OM10.1 and CEM-ss cells. […] CF-315 was further shown to protect uninfected human T cells from a productive HIV-1 infection (FIG. 2). In this experiment, the retroviral vector, pLNGFRM, containing the CF-315 nucleic acid molecule was transferred into CEM-ss cells followed by NGFR selection. Vector containing plasmid DNA (denoted LNGFRM) was used as negative control. […]

[3] = system: HIV; experiment: Selection of GSEs from PBMC library using CEM-ss cells; assay type: cell-based
Procedure: A cell-derived random fragment library (RFL) was constructed using cDNA from peripheral blood mononuclear cells (PBMC). Four buffy coats were obtained from four healthy blood donors and PBMCs were purified by Ficoll gradient centrifugation followed by stimulation with PHA (1 μg/mL). Cells were removed at 5, 10, and 24 hours after the addition of PHA and total RNA was isolated by Trizol extraction. All time points from all donors were then pooled. Polyadenylated mRNA was purified from the total RNA by passages through an oligo-dT column. cDNA was synthesized from the polyadenylated RNA with random primers using the Gibco Superscript Choice system for cDNA Synthesis (Gibco BRL, Rockville, Md.). The cDNA was normalized using the PCR-Select cDNA Subtraction kit (Clontech, Palo Alto, Calif.) based on the suppression subtractive hybridization methods of Diatchenko et al. (1996, Proc. Natl. Acad. Sci. USA 93, 6025-6030, 1996). The primers used for the normalization were: […]
The normalized random fragments were digested with XhoI and Sse83871, purified on quick spin columns (available from Qiagen, Valencia, Calif.) and ligated into the SseI/XhoI site of a bicistronic retroviral vector, EMCVNgfrMPBIN. This vector was based on LXSNgfr as described in Dunn el al. (1999, Gene Therapy 6:130-137). Modifications included substitution of the Moloney murine leukemia virus LTR with the hybrid LTR described by Baum et al., 1995, (J. Virol. 69:7541-7547) and replacement of the SV40 promoter with encephalomyocarditis virus (EMCV) internal ribosomal entry site isolated from the plasmid, pCITE (available from Amersham, Arlington Heights, Ill.). The ligation mix was then transformed into competent cells. The total plasmid was purified from approximately 50 million clones.
The PBMC library was screened using the methods described above in Section 1F. A total of 14 GSEs were isolated using CEM-ss cells. […] The complement of SEQ ID NO:69 is represented by SEQ ID NO:70. CF-675 (SEQ ID NO:71) is another GSE that has substantial sequence identity with a gene encoding human translationally controlled tumor protein 1 (GenBank Accession No. HUMCH13C4A). The complement of SEQ ID NO:71 is represented by SEQ ID NO:72. CF-679 (SEQ ID NO:83) is another GSE that has substantial sequence identity with a gene encoding human translationally controlled tumor protein 1 (GenBank Accession No. HUMCH13C4A). The complement of SEQ ID NO:83 is represented by SEQ ID NO:84. […] The complement of SEQ ID NO:75 is represented by SEQ ID NO:76. […] The complement of SEQ ID NO:79 is represented by SEQ ID NO:80. […] The complement of SEQ ID NO:67 is represented by SEQ ID NO:68. […] The complement of SEQ ID NO:63 is represented by SEQ ID NO:64. CF-675 (SEQ ID NO:65) is another GSE that has substantial sequence identity with a gene encoding alpha enolase protein. The complement of SEQ ID NO:65 is represented by SEQ ID NO:66. […] The complement of SEQ ID NO:73 is represented by SEQ ID NO:74. […] The complement of SEQ ID NO:81 is represented by SEQ ID NO:82. […] The complement of SEQ ID NO:85 is represented by SEQ ID NO:86. […] The complement of SEQ ID NO:89 is represented by SEQ ID NO:90. […] The complement of SEQ ID NO:91 is represented by SEQ ID NO:92. […] The complement of SEQ ID NO:93 is represented by SEQ ID NO:94. Another member of the cluster is CF-686 (SEQ ID NO:95), also having substantial sequence identity with a gene encoding cell surface heparin binding protein (Liu et al., ibid.). The complement of SEQ ID NO:95 is represented by SEQ ID NO:96.

Molecule | HIV-suppressive activity of the GSE and active orientation [2] | further results
CCC1(CCC(C)C)C(=O)NC(=O)NC1=O [amytal, Amytal] | – | inhibition of induction of latent HIV provirus (retention of CD4 expression) ([1]; TNF-α-induced OM10.1 cells, 24 hour incubation, FIG. 5 / FIG. 6): inhibited the induction of latent HIV provirus in OM10.1 cells in a dose-dependent manner; intracellular p24 levels ([1]; treated cells compared with untreated controls): suppressed intracellular p24 levels
B1 | suppresses HIV activities as an antisense molecule | –
B2 | exhibits its HIV-suppressive activities in the sense orientation | –
B3 | – | HIV-suppressive activity of the GSE and active orientation [3]: interferes with HIV replication as an antisense molecule
B4 | suppresses HIV infection as an antisense molecule | –
B5 | suppresses HIV replication in the sense orientation | –
B6 | suppresses HIV infection in the sense orientation | –
